T1: RAC2 P29L, position 1 replaced by alanine peptide on HLA-A*02:01 (human)
T1 peptide: ALGEYIPTV

T2: RAC1 P29S peptide on HLA-A*02:01 (human)
T2 peptide: FSGEYIPTV

T3: RAC2 P29L, position 6 replaced by alanine peptide on HLA-A*02:01 (human)
T3 peptide: FLGEYAPTV

T4: RAC2 P29L, position 3 replaced by alanine peptide on HLA-A*02:01 (human)
T4 peptide: FLAEYIPTV

T5: RAC2 P29L peptide on HLA-A*02:01 (human)
T5 peptide: FLGEYIPTV

T6: RAC2 P29L, position 2 replaced by alanine peptide on HLA-A*02:01 (human)
T6 peptide: FAGEYIPTV

T7: RAC2 P29L, position 4 replaced by alanine peptide on HLA-A*02:01 (human)
T7 peptide: FLGAYIPTV


Assays:
Assay in all cases: cytokine release
[1] = target: T1, RAC2 P29L, position 1 replaced by …
[2] = target: T2, RAC1 P29S peptide on HLA-A*02:01
[3] = target: T3, RAC2 P29L, position 6 replaced by …
[4] = target: T4, RAC2 P29L, position 3 replaced by …
[5] = target: T5, RAC2 P29L peptide on HLA-A*02:01
[6] = target: T6, RAC2 P29L, position 2 replaced by …
[7] = target: T7, RAC2 P29L, position 4 replaced by …

Row | binding result [1] | binding result [2] | binding result [3] | binding result [4] | binding result [5] | binding result [6] | binding result [7] | Binder
1 | recognises | recognises | recognises | recognises | recognises | recognises |  | RAC2-T002 (TCR, V domains shown) Valpha: AQSVTQLGSHVSVSEGALVLLRCNYSSSVPPYLFWYVQYPNQGLQLLLKYTTGATLVKGINGFEAEFKKSETSFHLTKPSAHMSDAAEYFCAVGANNLFFGTGTRLTVIP Vbeta: EPEVTQTPSHQVTQMGQEVILRCVPISNHLYFYWYRQILGQKVEFLVSFYNNEISEKSEIFDDQFSVERPDGSNFTLKIRSTKLEDSAMYFCASSEWRGSSYNEQFFGPGTRLTVL
2 | recognises | recognises |  | recognises | recognises | recognises | recognises | RAC2-T001 (TCR, V domains shown) Valpha: GENVEQHPSTLSVQEGDSAVIKCTYSDSASNYFPWYKQELGKGPQLIIDIRSNVGEKKDQRIAVTLNKTAKHFSLHITETQPEDSAVYFCAASMGNAGNMLTFGGGTRLMVKP Vbeta: EPEVTQTPSHQVTQMGQEVILRCVPISNHLYFYWYRQILGQKVEFLVSFYNNEISEKSEIFDDQFSVERPDGSNFTLKIRSTKLEDSAMYFCASSETSGASYEQYFGPGTRLTVT
